# According to IntAct's records for PubMed 21527715:
# B1: Complement receptor type 2 (Homo sapiens), P20023 (parent)
# chain: MGAAGLLGVFLALVAPGVLGISCGSPPPILNGRISYYSTPIAVGTVIRYSCSGTFRLIGEKSLLCITKDKVDGTWDKPAPKCEYFNKYSSCPEPIVPGGYKIRGSTPYRHGDSVTFACKTNFSMNGNKSVWCQANNMWGPTRLPTCVSVFPLECPALPMIHNGHHTSENVGSIAPGLSVTYSCESGYLLVGEKIINCLSSGKWSAVPPTCEEARCKSLGRFPNGKVKEPPILRVGVTANFFCDEGYRLQGPPSSRCVIAGQGVAWTKMPVCEEIFCPSPPPILNGRHIGNSLANVSYGSIVTYTCDPDPEEGVNFILIGESTLRCTVDSQKTGTWSGPAPRCELSTSAVQCPHPQILRGRMVSGQKDRYTYNDTVIFACMFGFTLKGSKQIRCNAQGTWEPSAPVCEKECQAPPNILNGQKEDRHMVRFDPGTSIKYSCNPGYVLVGEESIQCTSEGVWTPPVPQCKVAACEATGRQLLTKPQHQFVRPDVNSSCGEGYKLSGSVYQECQGTIPWFMEIRLCKEITCPPPPVIYNGAHTGSSLEDFPYGTTVTYTCNPGPERGVEFSLIGESTIRCTSNDQERGTWSGPAPLCKLSLLAVQCSHVHIANGYKISGKEAPYFYNDTVTFKCYSGFTLKGSSQIRCKADNTWDPEIPVCEKETCQHVRQSLQELPAGSRVELVNTSCQDGYQLTGHAYQMCQDAENGIWFKKIPLCKVIHCHPPPVIVNGKHTGMMAENFLYGNEVSYECDQGFYLLGEKKLQCRSDSKGHGSWSGPSPQCLRSPPVTRCPNPEVKHGYKLNKTHSAYSHNDIVYVDCNPGFIMNGSRVIRCHTDNTWVPGVPTCIKKAFIGCPPPPKTPNGNHTGGNIARFSPGMSILYSCDQGYLLVGEALLLCTHEGTWSQPAPHCKEVNCSSPADMDGIQKGLEPRKMYQYGAVVTLECEDGYMLEGSPQSQCQSDHQWNPPLAVCRSRSLAPVLCGIAAGLILLTFLIVITLYVISKHRARNYYTDTSQKEAFHLEAREVYSVDPYNPAS
# Variants of: B1
# Settings: with co3_human C3, P01024
# Sequence of co3_human C3, P01024 (P01024 whole entry): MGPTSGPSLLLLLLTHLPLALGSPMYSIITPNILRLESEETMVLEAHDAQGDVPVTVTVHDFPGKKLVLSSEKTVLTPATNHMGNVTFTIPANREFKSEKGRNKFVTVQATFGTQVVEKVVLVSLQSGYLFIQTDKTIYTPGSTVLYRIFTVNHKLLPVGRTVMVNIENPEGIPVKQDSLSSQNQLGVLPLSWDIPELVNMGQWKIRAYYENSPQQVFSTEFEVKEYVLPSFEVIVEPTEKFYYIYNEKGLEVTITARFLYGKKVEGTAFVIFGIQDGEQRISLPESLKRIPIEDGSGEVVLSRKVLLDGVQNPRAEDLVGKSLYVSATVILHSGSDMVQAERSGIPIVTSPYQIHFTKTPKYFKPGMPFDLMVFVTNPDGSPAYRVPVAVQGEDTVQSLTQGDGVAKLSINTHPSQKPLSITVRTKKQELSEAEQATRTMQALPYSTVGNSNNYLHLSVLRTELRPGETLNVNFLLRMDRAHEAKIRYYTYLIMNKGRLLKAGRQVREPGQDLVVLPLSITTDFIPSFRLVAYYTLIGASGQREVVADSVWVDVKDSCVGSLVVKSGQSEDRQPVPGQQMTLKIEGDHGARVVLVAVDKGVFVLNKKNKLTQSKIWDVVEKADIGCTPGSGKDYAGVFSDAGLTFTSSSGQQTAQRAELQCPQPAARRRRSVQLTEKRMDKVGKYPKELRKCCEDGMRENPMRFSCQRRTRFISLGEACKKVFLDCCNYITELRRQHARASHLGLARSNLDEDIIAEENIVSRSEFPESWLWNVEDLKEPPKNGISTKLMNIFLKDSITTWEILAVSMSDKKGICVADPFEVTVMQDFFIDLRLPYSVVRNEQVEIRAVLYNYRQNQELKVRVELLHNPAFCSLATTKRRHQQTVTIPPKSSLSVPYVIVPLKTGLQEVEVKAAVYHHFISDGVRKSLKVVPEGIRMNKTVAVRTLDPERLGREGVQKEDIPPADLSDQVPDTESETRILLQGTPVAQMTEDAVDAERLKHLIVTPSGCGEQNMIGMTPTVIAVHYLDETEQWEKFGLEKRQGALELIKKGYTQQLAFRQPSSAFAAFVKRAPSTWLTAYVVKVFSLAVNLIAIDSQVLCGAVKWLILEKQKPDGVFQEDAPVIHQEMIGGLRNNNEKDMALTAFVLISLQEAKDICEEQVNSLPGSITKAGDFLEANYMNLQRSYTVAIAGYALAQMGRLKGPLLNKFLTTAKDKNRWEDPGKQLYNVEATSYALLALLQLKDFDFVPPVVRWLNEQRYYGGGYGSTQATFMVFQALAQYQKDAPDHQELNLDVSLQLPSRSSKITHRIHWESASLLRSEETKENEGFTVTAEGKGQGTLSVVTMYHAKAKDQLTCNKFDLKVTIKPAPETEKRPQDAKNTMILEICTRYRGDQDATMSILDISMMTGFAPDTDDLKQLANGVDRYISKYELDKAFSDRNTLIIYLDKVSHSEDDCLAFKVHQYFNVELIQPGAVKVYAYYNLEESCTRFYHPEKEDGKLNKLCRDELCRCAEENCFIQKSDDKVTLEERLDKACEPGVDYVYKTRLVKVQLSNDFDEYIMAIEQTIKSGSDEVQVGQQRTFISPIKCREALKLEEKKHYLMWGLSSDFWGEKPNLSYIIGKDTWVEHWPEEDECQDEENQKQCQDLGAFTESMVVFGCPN
row,effect of a mutation on the interaction,Variant
1,decreasing interaction,D112A
2,decreasing interaction,K128A
3,decreasing interaction,R103A
